Experimental data: PMC5558740, “Absence of CX3CR1 impairs the internalization of Tau by microglia” (Molecular Neurodegeneration, 2017)

Columns and labels:
[1] = molecular target: T1, recombinant human Tau isoform containing 2 N-terminal inserts and 4 microtubule binding repeats (Tau42) (human, UniProt P10636-8 1-441); assay: affinity chromatography; CX3CR1 peptide coupled to CNBr-activated Sepharose 4B; protein (1 mg/ml) loaded in buffer A (0.1 M Mes pH 6.4, 0.5 mM MgCl2, 2 mM EGTA); bound protein eluted with 0.5 M NaCl in buffer A; fractions read by dot immunoblot; conditions: both partners purified
T1 construct: also called purified Tau; source: recombinant, isolated as described previously [25], purified

[2] = molecular target: T2, Tau42 phosphorylated by GSK-3β (phospho-Tau) (human, UniProt P10636-8 1-441, phosphorylated by GSK-3β; phosphoserine at 396 (detected with anti-p-S396); other sites not stated); assay: as above; conditions: both partners purified
T2 construct: the Cy5-labelled form (phospho-Tau-Cy5) was used for the uptake test on microglia; also called Tau phosphorylated by GSK-3β; source: recombinant Tau42 phosphorylated in vitro by GSK-3β (Sigma), heated 5 min at 100 °C, supernatant collected
T2 sequence (P10636 other isoform, or with tags, fused parts or gaps): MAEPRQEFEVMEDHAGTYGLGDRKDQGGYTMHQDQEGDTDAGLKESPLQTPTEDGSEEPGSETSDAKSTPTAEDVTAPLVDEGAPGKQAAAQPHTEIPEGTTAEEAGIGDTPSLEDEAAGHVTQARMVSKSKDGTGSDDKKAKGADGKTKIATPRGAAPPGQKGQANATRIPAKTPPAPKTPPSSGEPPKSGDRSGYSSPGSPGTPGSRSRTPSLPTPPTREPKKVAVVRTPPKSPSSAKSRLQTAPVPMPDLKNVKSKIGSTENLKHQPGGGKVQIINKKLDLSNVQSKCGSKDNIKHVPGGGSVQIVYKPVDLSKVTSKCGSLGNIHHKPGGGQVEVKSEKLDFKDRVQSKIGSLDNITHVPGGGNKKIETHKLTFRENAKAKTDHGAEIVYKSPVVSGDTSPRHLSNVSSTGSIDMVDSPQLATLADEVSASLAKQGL

T1 sequence (P10636 other isoform, or with tags, fused parts or gaps): as above

B1: synthetic CX3CR1 peptide (aa 2-21) containing the binding region to CX3CL1 (peptide)
peptide: DQFPESVTENFEYDDLAEAC
notes: also called synthetic receptor CX3CR1; source: synthetic peptide, bought: Abyntek
B1: binds [1]; binds [2].
